System: carbamoylphosphate synthetase (CPSase)
Assay: CPSase activity in reaction of carbamoylphosphate (CP) synthesis from glutamine or ammonia, protein extracts, CP by capillary zone electrophoresis
Type: biochemical, E. coli
Method: Then, the protein extracts from these 9 clones B-6969(pEL-carAB-NN) and one clone B-6969(pEL-carAB-6) were used to evaluate the activity and fbr of mutant CPSases in reaction of carbamoylphosphate (CP) synthesis from glutamine or ammonia.
The crude cellular extracts from cells were prepared by sonication of 20 mg wet cells pellet suspended in 0.5 ml of buffer A (200 mM K2HPO4/KH2PO4, pH 8.0, 1 mM EDTA, 1 mM PMSF, 1 mM DTT) and treated with solid ammonium sulfate to achieve 65% of saturation. After incubation for 10 min at 4° C., the suspensions were centrifuged at 13,000 rpm for 10 min and the precipitates were dissolved in 1 ml of buffer B (20 mM K2HPO4/KH2PO4, pH 8.0, 50 mM KCl, 1 mM PMSF, 1 mM DTT). The aliquots of obtained protein extracts were used to evaluate the CPSase activity. The schemes of reaction were following: Gln+CO2+2MgATP+H2O→NH2COOPO3^2−+2MgADP+Glu+P1 I. NH3+CO2+[…]+H2O→NH2COOPO3^2−+2MgADP+P1 II.
The 50 μl of each reaction mixture included:
reaction I—20 mM tris-HCl, pH 8.0, 100 mM KCl, 5 mM Na2CO3, 10 mM ATP, 10 mM MgCl2, 5 mM glutamine, 10 μl of protein extract;
reaction II—20 mM tris-HCl, pH 8.0, 100 mM KCl, 5 mM Na2CO3, 10 mM ATP, 10 mM MgCl2, 200mM (NH4)2SO4, 10 μl of protein extract. […]
After incubation for 10 min at 37° C. reactions were stopped by addition of equal volume of EtOH, cooled at −20° C. for 10 min and centrifuged at 13,000 rpm for 1 min at room temperature. Supernatants were cooled at −20° C.
The CP content in reaction mixtures was analyzed by capillary zone electrophoresis. The separation was performed on a Quanta 4000E Capillary Electrophoresis System (“Waters”, USA) with UV indirect detection at 254 nm. The injection was performed by hydrostatic for 25 s. The separation was carried out with an uncoated fused-silica capillary (75 u I.D.* 60cm, effective length 53 cm) and was operated at −25 kV potential. Temperature was maintained at 20° C. The separation buffer consisted of 50 mM Tris base, 25mM benzoic acid (for indirect detection), pH 8.5, 0.25mM TTAB (tetradecyl-trimethyl-ammonium bromide) (for reversion of electroosmotic flow).

B1: clone Wt: wild type E. coli CPSase; CarB 947-951 -Leu-Ser-Val-Arg-Glu- (SEQ ID NO: 28) (protein, UniProt P0A6F1 1-382; P00968 2-1073, looked up)
Carbamoyl phosphate synthase … 1: MIKSALLVLEDGTQFHGRAIGATGSAVGEVVFNTSMTGYQEILTDPSYSRQIVTLTYPHIGNVGTNDADEESSQVHAQGLVIRDLPLIASNFRNTEDLSSYLKRHNIVAIADIDTRKLTRLLREKGAQNGCIIAGDNPDAALALEKARAFPGLNGMDLAKEVTTAEAYSWTQGSWTLTGGLPEAKKEDELPFHVVAYDFGAKRNILRMLVDRGCRLTIVPAQTSAEDVLKMNPDGIFLSNGPGDPAPCDYAITAIQKFLETDIPVFGICLGHQLLALASGAKTVKMKFGHHGGNHPVKDVEKNVVMITAQNHGFAVDEATLPANLRVTHKSLFDGTLQGIHRTDKPAFSFQGHPEASPGPHDAAPLFDHFIELIEQYRKTAK
Carbamoyl phosphate synthase … 2: PKRTDIKSILILGAGPIVIGQACEFDYSGAQACKALREEGYRVILVNSNPATIMTDPEMADATYIEPIHWEVVRKIIEKERPDAVLPTMGGQTALNCALELERQGVLEEFGVTMIGATADAIDKAEDRRRFDVAMKKIGLETARSGIAHTMEEALAVAADVGFPCIIRPSFTMGGSGGGIAYNREEFEEICARGLDLSPTKELLIDESLIGWKEYEMEVVRDKNDNCIIVCSIENFDAMGIHTGDSITVAPAQTLTDKEYQIMRNASMAVLREIGVETGGSNVQFAVNPKNGRLIVIEMNPRVSRSSALASKATGFPIAKVAAKLAVGYTLDELMNDITGGRTPASFEPSIDYVVTKIPRFNFEKFAGANDRLTTQMKSVGEVMAIGRTQQESLQKALRGLEVGATGFDPKVSLDDPEALTKIRRELKDAGADRIWYIADAFRAGLSVDGVFNLTNIDRWFLVQIEELVRLEEKVAEVGITGLNADFLRQLKRKGFADARLAKLAGVREAEIRKLRDQYDLHPVYKRVDTCAAEFATDTAYMYSTYEEECEANPSTDREKIMVLGGGPNRIGQGIEFDYCCVHASLALREDGYETIMVNCNPETVSTDYDTSDRLYFEPVTLEDVLEIVRIEKPKGVIVQYGGQTPLKLARALEAAGVPVIGTSPDAIDRAEDRERFQHAVERLKLKQPANATVTAIEMAVEKAKEIGYPLVVRPSYVLGGRAMEIVYDEADLRRYFQTAVSVSNDAPVLLDHFLDDAVEVDVDAICDGEMVLIGGIMEHIEQAGVHSGDSACSLPAYTLSQEIQDVMRQQVQKLAFELQVRGLMNVQFAVKNNEVYLIEVNPRAARTVPFVSKATGVPLAKVAARVMAGKSLAEQGVTKEVIPPYYSVKEVVLPFNKFPGVDPLLGPEMRSTGEVMGVGRTFAEAFAKAQLGSNSTMKKHGRALLSVREGDKERVVDLAAKLLKQGFELDATHGTAIVLGEAGINPRLVNKVHEGRPHIQDRIKNGEYTYIINTTSGRRAIEDSRVIRRSALQYKVHYDTTLNGGFATAMALNADATEKVISVQEMHAQIK
Activity, (CP) (Substrate: 5 mM Gln): 1350 nmol/mg/min | Activity, (CP) (Substrate: 5 mM Gln, Allosteric effector: 10 mM UMP): 170 nmol/mg/min | Activity, (CP) (Substrate: 200 mM (NH4)2SO4): 425 nmol/mg/min

Reference: patent US7211419B2, “Mutant carbamoylphosphate synthetase and method for producing compounds derived from carbamoylphosphate” (priority 2001, dated 2007)
